Source: patent publication US20220218785A1 (ALPINE IMMUNE SCIENCES, published 2022)

T1: human ICOS (human, UniProt Q9Y6W8 21-199)
T1 construct: whole, on cells
T1 sequence (looked up): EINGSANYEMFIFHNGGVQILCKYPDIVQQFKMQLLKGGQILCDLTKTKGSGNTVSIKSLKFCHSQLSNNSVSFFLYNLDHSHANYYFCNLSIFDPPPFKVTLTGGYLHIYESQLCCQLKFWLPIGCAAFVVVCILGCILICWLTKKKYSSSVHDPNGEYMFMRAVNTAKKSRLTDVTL

B1: ICOSL ECD Truncation #6 with N52H/N57Y/Q100R/C198R (Fc fusion, not shown: a dimerising Fc or GST)
chain: DTQEKEVRAMVGSDVELSCACPEGSRFDLNDVYVYWQTSESKTVVTYHIPQHSSLEYVDSRYRNRALMSPAGMLRGDFSLRLFNVTPQDEQKFHCLVLSRSLGFQEVLSVEVTLHVAANFSVPVVSAPHSPSQDELTFTCTSINGYPRPNVYWINKTDNSLLDQALQNDTVFLNMRGLYDVVSVLRIARTPSVNIGCRIENVLL
notes: Made in CHO cells
B2: ICOSL ECD Truncation #4 with N52H/N57Y/Q100R/F172S and E200G, Fc fusion (Fc fusion)
chain: DTQEKEVRAMVGSDVELSCACPEGSRFDLNDVYVYWQTSESKTVVTYHIPQHSSLEYVDSRYRNRALMSPAGMLRGDFSLRLFNVTPQDEQKFHCLVLSRSLGFQEVLSVEVTLHVAANFSVPVVSAPHSPSQDELTFTCTSINGYPRPNVYWINKTDNSLLDQALQNDTVSLNMRGLYDVVSVLRIARTPSVNIGCCIGNVLLQQNGGGGSGGGGSEPKSSDKTHTCPPCPAPEAEGAPSVFLFPPKPKDTLMISRTPEVTCVVVDVSHEDPEVKFNWYVDGVEVHNAKTKPREEQYNSTYRVVSVLTVLHQDWLNGKEYKCKVSNKALPAPIEKTISKAKGQPREPQVYTLPPSREEMTKNQVSLTCLVKGFYPSDIAVEWESNGQPENNYKTTPPVLDSDGSFFLYSKLTVDKSRWQQGNVFSCSVMHEALHNHYTQKSLSLSPG
notes: Made in CHO cells; E200G is an additional mutation found later in the clone
B3: ICOSL ECD Truncation #6 with N52H/N57Y/Q100R/F172S, Fc fusion (Fc fusion)
chain: DTQEKEVRAMVGSDVELSCACPEGSRFDLNDVYVYWQTSESKTVVTYHIPQHSSLEYVDSRYRNRALMSPAGMLRGDFSLRLFNVTPQDEQKFHCLVLSRSLGFQEVLSVEVTLHVAANFSVPVVSAPHSPSQDELTFTCTSINGYPRPNVYWINKTDNSLLDQALQNDTVSLNMRGLYDVVSVLRIARTPSVNIGCCIENVLLGGGGSGGGGSEPKSSDKTHTCPPCPAPEAEGAPSVFLFPPKPKDTLMISRTPEVTCVVVDVSHEDPEVKFNWYVDGVEVHNAKTKPREEQYNSTYRVVSVLTVLHQDWLNGKEYKCKVSNKALPAPIEKTISKAKGQPREPQVYTLPPSREEMTKNQVSLTCLVKGFYPSDIAVEWESNGQPENNYKTTPPVLDSDGSFFLYSKLTVDKSRWQQGNVFSCSVMHEALHNHYTQKSLSLSPG
notes: Made in CHO cells
B4: ICOSL ECD Truncation #5 with N52H/N57Y/Q100R/C198R (Fc fusion, not shown: a dimerising Fc or GST)
chain: DTQEKEVRAMVGSDVELSCACPEGSRFDLNDVYVYWQTSESKTVVTYHIPQHSSLEYVDSRYRNRALMSPAGMLRGDFSLRLFNVTPQDEQKFHCLVLSRSLGFQEVLSVEVTLHVAANFSVPVVSAPHSPSQDELTFTCTSINGYPRPNVYWINKTDNSLLDQALQNDTVFLNMRGLYDVVSVLRIARTPSVNIGCRIENVLLQQ
notes: Made in CHO cells
B5: ICOSL ECD Truncation #7 with N52H/N57Y/Q100R/C198R and E90K/E111G (Fc fusion, not shown: a dimerising Fc or GST)
chain: DTQEKEVRAMVGSDVELSCACPEGSRFDLNDVYVYWQTSESKTVVTYHIPQHSSLEYVDSRYRNRALMSPAGMLRGDFSLRLFNVTPQDKQKFHCLVLSRSLGFQEVLSVGVTLHVAANFSVPVVSAPHSPSQDELTFTCTSINGYPRPNVYWINKTDNSLLDQALQNDTVFLNMRGLYDVVSVLRIARTPSVNIGCRIEN
notes: Made in CHO cells
B6: ICOSL IgV with N52H/N57Y/Q100R and H48R/S54P, Fc fusion (Fc fusion)
chain: DTQEKEVRAMVGSDVELSCACPEGSRFDLNDVYVYWQTSESKTVVTYRIPQHSPLEYVDSRYRNRALMSPAGMLRGDFSLRLFNVTPQDEQKFHCLVLSRSLGFQEVLSVEVTLHVAANFSVGGGGSGGGGSEPKSSDKTHTCPPCPAPEAEGAPSVFLFPPKPKDTLMISRTPEVTCVVVDVSHEDPEVKFNWYVDGVEVHNAKTKPREEQYNSTYRVVSVLTVLHQDWLNGKEYKCKVSNKALPAPIEKTISKAKGQPREPQVYTLPPSREEMTKNQVSLTCLVKGFYPSDIAVEWESNGQPENNYKTTPPVLDSDGSFFLYSKLTVDKSRWQQGNVFSCSVMHEALHNHYTQKSLSLSPG
notes: Made in CHO cells. '554P' is read as S54P; also called ICOSL IgV with N52H/N57Y/Q100R and H48R/554P
B7: ICOSL ECD with N52H/N57Y/Q100R/C198R (Table 18) (Fc fusion, not shown: a dimerising Fc or GST)
chain: DTQEKEVRAMVGSDVELSCACPEGSRFDLNDVYVYWQTSESKTVVTYHIPQHSSLEYVDSRYRNRALMSPAGMLRGDFSLRLFNVTPQDEQKFHCLVLSRSLGFQEVLSVEVTLHVAANFSVPVVSAPHSPSQDELTFTCTSINGYPRPNVYWINKTDNSLLDQALQNDTVFLNMRGLYDVVSVLRIARTPSVNIGCRIENVLLQQNLTVGSQTGNDIGERDKITENPVSTGEKNAAT
notes: Made in CHO cells; May be the same construct as m37
B8: ICOSL ECD Truncation #7 with N52H/N57Y/Q100R/F172S and F83S, Fc fusion (Fc fusion)
chain: DTQEKEVRAMVGSDVELSCACPEGSRFDLNDVYVYWQTSESKTVVTYHIPQHSSLEYVDSRYRNRALMSPAGMLRGDFSLRLSNVTPQDEQKFHCLVLSRSLGFQEVLSVEVTLHVAANFSVPVVSAPHSPSQDELTFTCTSINGYPRPNVYWINKTDNSLLDQALQNDTVSLNMRGLYDVVSVLRIARTPSVNIGCCIENGGGGSGGGGSEPKSSDKTHTCPPCPAPEAEGAPSVFLFPPKPKDTLMISRTPEVTCVVVDVSHEDPEVKFNWYVDGVEVHNAKTKPREEQYNSTYRVVSVLTVLHQDWLNGKEYKCKVSNKALPAPIEKTISKAKGQPREPQVYTLPPSREEMTKNQVSLTCLVKGFYPSDIAVEWESNGQPENNYKTTPPVLDSDGSFFLYSKLTVDKSRWQQGNVFSCSVMHEALHNHYTQKSLSLSPG
notes: Made in CHO cells; F83S is an additional mutation found later in the clone
B9: ICOSL ECD Truncation #8 with N207G/L208G and N52H/N57Y/Q100R/F172S, Fc fusion (Fc fusion)
chain: DTQEKEVRAMVGSDVELSCACPEGSRFDLNDVYVYWQTSESKTVVTYHIPQHSSLEYVDSRYRNRALMSPAGMLRGDFSLRLFNVTPQDEQKFHCLVLSRSLGFQEVLSVEVTLHVAANFSVPVVSAPHSPSQDELTFTCTSINGYPRPNVYWINKTDNSLLDQALQNDTVSLNMRGLYDVVSVLRIARTPSVNIGCCIENVLLQQGGTGGGGSGGGGSEPKSSDKTHTCPPCPAPEAEGAPSVFLFPPKPKDTLMISRTPEVTCVVVDVSHEDPEVKFNWYVDGVEVHNAKTKPREEQYNSTYRVVSVLTVLHQDWLNGKEYKCKVSNKALPAPIEKTISKAKGQPREPQVYTLPPSREEMTKNQVSLTCLVKGFYPSDIAVEWESNGQPENNYKTTPPVLDSDGSFFLYSKLTVDKSRWQQGNVFSCSVMHEALHNHYTQKSLSLSPG
notes: Made in CHO cells

Molecular target: T2, human CD28 (human, UniProt P10747 19-220)
T2 construct: whole, on cells
Assay: flow cytometry, cells with human CD28; protein from CHO

Which MFI does the source give for B1 here?
Its MFI is 84600 MFI.

And the “MFI (ΔWT)” value?
Its value is 49 fold vs WT.

Which “MFI (ΔWT)” value does the source give for B2 here?
Its value is 46.6 fold vs WT.

B3 was tested. Which “MFI (ΔWT)” value did it give?
Its value is 52.8 fold vs WT.

B4 was tested. Which MFI did it give?
Its MFI is 86300 MFI.

What about the “MFI (ΔWT)” value of the same binder?
Its value is 50 fold vs WT.

What does the source list for B5?
MFI: 38900 MFI; MFI (ΔWT): 22.5 fold vs WT

B6 was tested. Which “MFI (ΔWT)” value did it give?
The value was 43.6 fold vs WT.

Which results are given for B7?
MFI: 59200 MFI; MFI (ΔWT): 34.3 fold vs WT

Which “MFI (ΔWT)” value does the source give for B8 here?
The value was 51.1 fold vs WT.

B9 was tested. Which “MFI (ΔWT)” value did it give?
Its value is 62.4 fold vs WT.

Molecular target: T1, human ICOS
Assay: flow cytometry, cells with human ICOS; protein from CHO

With B1 as the binder, how does the MFI read?
The MFI was 91400 MFI.

What about the “MFI (ΔWT)” value of the same binder?
Its value is 0.9 fold vs WT.

With B2 as the binder, how does the “MFI (ΔWT)” value read?
Its value is 1.1 fold vs WT.

With B3 as the binder, how does the “MFI (ΔWT)” value read?
The value was 0.9 fold vs WT.

How did the MFI turn out when B4 was run?
Its MFI is 110000 MFI.

And the “MFI (ΔWT)” value?
The value was 1.1 fold vs WT.

With B5 as the binder, how does the MFI read?
The MFI was 54600 MFI.

What about the “MFI (ΔWT)” value of the same binder?
Its value is 0.5 fold vs WT.

B6 was tested. Which “MFI (ΔWT)” value did it give?
Its value is 1.4 fold vs WT.

What does the source list for B7?
MFI: 139000 MFI; MFI (ΔWT): 1.4 fold vs WT

B8 was tested. Which “MFI (ΔWT)” value did it give?
Its value is 1.1 fold vs WT.

How did the “MFI (ΔWT)” value turn out when B9 was run?
Its value is 1.3 fold vs WT.

Molecular target: T3, human CTLA-4 (human, UniProt P16410 36-223)
T3 construct: whole, on cells
Assay: flow cytometry, cells with human CTLA-4; protein from CHO

T3 sequence (P16410 36-223): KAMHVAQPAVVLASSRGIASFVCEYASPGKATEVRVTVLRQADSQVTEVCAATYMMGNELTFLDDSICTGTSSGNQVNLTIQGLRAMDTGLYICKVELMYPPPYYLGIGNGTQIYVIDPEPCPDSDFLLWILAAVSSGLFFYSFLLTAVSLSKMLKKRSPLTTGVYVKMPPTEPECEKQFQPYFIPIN

How did the MFI turn out when B1 was run?
The MFI was 236000 MFI.

And the “MFI (ΔWT)” value?
The value was 31.1 fold vs WT.

Which “MFI (ΔWT)” value does the source give for B2 here?
Its value is 42.3 fold vs WT.

B3 was tested. Which “MFI (ΔWT)” value did it give?
Its value is 31.6 fold vs WT.

Which results are given for B4?
MFI: 216000 MFI; MFI (ΔWT): 28.5 fold vs WT

How did the MFI turn out when B5 was run?
Its MFI is 83700 MFI.

What about the “MFI (ΔWT)” value of the same binder?
The value was 11 fold vs WT.

Which “MFI (ΔWT)” value does the source give for B6 here?
The value was 42.4 fold vs WT.

How did the MFI turn out when B7 was run?
Its MFI is 133000 MFI.

What about the “MFI (ΔWT)” value of the same binder?
Its value is 17.5 fold vs WT.

B8 was tested. Which “MFI (ΔWT)” value did it give?
The value was 27.3 fold vs WT.

Which “MFI (ΔWT)” value does the source give for B9 here?
The value was 40.7 fold vs WT.
